In patent US20090191623A1:

Molecular target: azurin from Pseudomonas aeruginosa (Pseudomonas aeruginosa) (UniProt P00282)
Test: SPR equilibrium titration, azurin immobilised on CM5

azurin from Pseudomonas aeruginosa (Pseudomonas aeruginosa), sequence (P00282 21-148 limits assumed): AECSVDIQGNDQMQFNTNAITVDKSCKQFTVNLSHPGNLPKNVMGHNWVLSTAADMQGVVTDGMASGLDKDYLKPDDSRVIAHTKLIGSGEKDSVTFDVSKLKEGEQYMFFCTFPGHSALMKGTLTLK

NCAM (from UniProt P13591 20-718) (receptor)
Kd: 20 nM
